# According to publication PMC6698736:
# Columns and labels:
# [1] = biological target: KacA, wild type, purified alone (Klebsiella pneumoniae); test: SEC-MALS
# [2] = biological target: KacA (coexpressed in KacAT);KacT (Klebsiella pneumoniae;Klebsiella …, UniProt A0A0H3GLZ1;A0A0H3GMP0 1-88;1-177, |); test: X-ray crystallography
molecule,measurement,setting,value
"KacA, wild type, purified alone (natural protein)",stoichiometry N,[1],2
KacT^Y145F (enzyme),"N, peak α (KacT per KacA (8:8))",[1],1
same,"N, peak β (KacT per KacA (2:4))",[1],0.5
27-bp kacAT operator duplex (dsDNA) DNA 1: AAATGTACGGTTATTAACCGTACATGA DNA 2: TCATGTACGGTTAATAACCGTACATTT,binding result,[2],binds
